Measurements: US20230340151A1 (Pfizer, published 2023)

What was measured:
Assay in all cases: peptide DELFIA ELISA;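 note: epitope mapping using overlapping 20-mer GUCY2C peptides covering residues 1-440, extracellular into transmembrane domain, coated at 20 µg/ml as target antigen and probed with antibodies or GUCY2C-CD3 bispecifics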
[1] = target: T1, GUCY2C_ECD Peptide 50 (human)
T1 peptide: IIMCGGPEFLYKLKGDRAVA
Experimental: (§1) Arrays were reconstituted with acetonitrile to 100 μg/ml and were then further diluted to 20 μg/ml with sodium carbonate/bicarbonate buffer. Purified antibodies or GUCY2c-CD3 bispecifics were then tested by Delfia ELISA for binding to the different peptides using Delfia ELISA methods previously discussed, with diluted peptides used as the target antigen.

[2] = target: T2, GUCY2C_ECD Peptide 60 (human)
T2 peptide: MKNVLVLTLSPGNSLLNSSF
Experimental: as §1

[3] = target: T3, GUCY2C_ECD Peptide 77 (human)
T3 peptide: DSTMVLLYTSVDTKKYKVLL
Experimental: as §1

[4] = target: T4, GUCY2C_ECD Peptide 16 (human)
T4 peptide: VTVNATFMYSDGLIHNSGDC
Experimental: as §1

[5] = target: T5, GUCY2C_ECD Peptide 28 (human)
T5 peptide: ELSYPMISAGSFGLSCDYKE
Experimental: as §1

[6] = target: T6, GUCY2C_ECD Peptide 85 (human)
T6 peptide: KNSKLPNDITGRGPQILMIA
Experimental: as §1

[7] = target: T7, GUCY2C_ECD Peptide 24 (human)
T7 peptide: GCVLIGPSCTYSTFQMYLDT
Experimental: as §1

[8] = target: T8, GUCY2C_ECD Peptide 41 (human)
T8 peptide: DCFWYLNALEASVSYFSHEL
Experimental: as §1

[9] = target: T9, GUCY2C_ECD Peptide 52 (human)
T9 peptide: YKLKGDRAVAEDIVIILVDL
Experimental: as §1

[10] = target: T10, GUCY2C_ECD Peptide 59 (human)
T10 peptide: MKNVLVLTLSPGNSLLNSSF
Experimental: as §1

[11] = target: T11, GUCY2C_ECD Peptide 83 (human)
T11 peptide: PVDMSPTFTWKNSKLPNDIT
Experimental: as §1

[12] = target: T12, GUCY2C_ECD Peptide 12 (human)
T12 peptide: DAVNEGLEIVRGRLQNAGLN
Experimental: as §1

[13] = target: T13, GUCY2C_ECD Peptide 55 (human)
T13 peptide: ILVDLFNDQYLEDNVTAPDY
Experimental: as §1

[14] = target: T14, GUCY2C_ECD Peptide 44 (human)
T14 peptide: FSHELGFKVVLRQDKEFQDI
Experimental: as §1

[15] = target: T15, GUCY2C_ECD Peptide 38 (human)
T15 peptide: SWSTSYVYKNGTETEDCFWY
Experimental: as §1

[16] = target: T16, GUCY2C_ECD Peptide 67 (human)
T16 peptide: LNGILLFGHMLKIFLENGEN
Experimental: as §1

[17] = target: T17, GUCY2C_ECD Peptide 73 (human)
T17 peptide: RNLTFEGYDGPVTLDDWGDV
Experimental: as §1

[18] = target: T18, GUCY2C_ECD Peptide 47 (human)
T18 peptide: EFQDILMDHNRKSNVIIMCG
Experimental: as §1

[19] = target: T19, GUCY2C_ECD Peptide 31 (human)
T19 peptide: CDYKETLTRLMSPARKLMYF
Experimental: as §1

[20] = target: T20, GUCY2C_ECD Peptide 79 (human)
T20 peptide: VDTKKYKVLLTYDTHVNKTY
Experimental: as §1

[21] = target: T21, GUCY2C_ECD Peptide 78 (human)
T21 peptide: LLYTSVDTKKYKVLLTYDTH
Experimental: as §1

[22] = target: T22, GUCY2C_ECD Peptide 35 (human)
T22 peptide: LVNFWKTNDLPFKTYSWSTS
Experimental: as §1

[23] = target: T23, GUCY2C_ECD Peptide 71 (human)
T23 peptide: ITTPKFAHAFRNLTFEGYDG
Experimental: as §1

[24] = target: T24, GUCY2C_ECD Peptide 20 (human)
T24 peptide: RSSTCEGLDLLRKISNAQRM
Experimental: as §1

[25] = target: T25, GUCY2C_ECD Peptide 9 (human)
T25 peptide: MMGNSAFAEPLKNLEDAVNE
Experimental: as §1

[26] = target: T26, GUCY2C_ECD Peptide 27 (human)
T26 peptide: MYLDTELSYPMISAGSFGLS
Experimental: as §1

[27] = target: T27, GUCY2C_ECD Peptide 76 (human)
T27 peptide: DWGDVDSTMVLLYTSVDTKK
Experimental: as §1

[28] = target: T28, GUCY2C_ECD Peptide 23 (human)
T28 peptide: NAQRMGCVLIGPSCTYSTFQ
Experimental: as §1

[29] = target: T29, GUCY2C_ECD Peptide 30 (human)
T29 peptide: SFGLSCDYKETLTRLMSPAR
Experimental: as §1

[30] = target: T30, GUCY2C_ECD Peptide 58 (human)
T30 peptide: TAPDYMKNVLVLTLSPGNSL
Experimental: as §1

[31] = target: T31, GUCY2C_ECD Peptide 5 (human)
T31 peptide: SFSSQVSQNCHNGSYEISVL
Experimental: as §1

[32] = target: T32, GUCY2C_ECD Peptide 34 (human)
T32 peptide: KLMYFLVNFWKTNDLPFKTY
Experimental: as §1

[33] = target: T33, GUCY2C_ECD Peptide 7 (human)
T33 peptide: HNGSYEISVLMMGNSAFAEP
Experimental: as §1

[34] = target: T34, GUCY2C_ECD Peptide 87 (human)
T34 peptide: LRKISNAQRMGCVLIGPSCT
Experimental: as §1

[35] = target: T35, GUCY2C_ECD Peptide 10 (human)
T35 peptide: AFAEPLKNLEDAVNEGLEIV
Experimental: as §1

[36] = target: T36, GUCY2C_ECD Peptide 64 (human)
T36 peptide: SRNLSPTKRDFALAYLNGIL
Experimental: as §1

B1: GUCY2C-1608 (bispecific antibody)
chain 1: DIQLTQSPSSLSASVGDRVTITCRASESVDYYGSSLLQWYQQKPGKAPKLLIYAASKLASGVPSRFSGSGSGTDFTLTISSLQPEDFATYYCQQTRKAYTFGQGTKLEIKGGGSGGGGEVQLVESGGGLVQPGGSLRLSCAASGFTFSDYYMTWVRQAPGKGLEWVAFIRNQARGYTSDHNPSVKGRFTISRDNAKNSLYLQMNSLRAEDTAVYYCARDRPSYYVLDYWGQGTTVTVSSGCPPCPAPEAAGAPSVFLFPPKPKDTLMISRTPEVTCVVVDVSHEDPEVKFNWYVDGVEVHNAKTKPREEQYNSTYRVVSVLTVLHQDWLNGKEYKCKVSNKALPAPIEKTISKAKGQPREPQVCTLPPSREEMTKNQVSLWCLVKGFYPSDIAVEWESNGQPENNYKTTPPVLDSDGSFFLYSKLTVDKSRWQQGNVFSCSVMHEALHNHYTQKSLSLSPG
chain 2: DIQMTQSPSSLSASVGDRVTITCTSSQSLFNVRSQKNYLAWYQQKPGKAPKLLIYWASTRESGVPSRFSGSGSGTDFTLTISSLQPEDFATYYCKQSYDLFTFGGGTKVEIKGGGGSGGGGEVQLVESGGGLVQPGGSLRLSCAASGFTFSSYWMHWVRQAPGKGLEWIGEIKPSNELTNVHEKFKDRFTISVDKAKNSAYLQMNSLRAEDTAVYYCTRTITTTEGYWFFDVWGQGTLVTVSSGCPPCPAPEAAGAPSVFLFPPKPKDTLMISRTPEVTCVVVDVSHEDPEVKFNWYVDGVEVHNAKTKPREEQYNSTYRVVSVLTVLHQDWLNGKEYKCKVSNKALPAPIEKTISKAKGQPREPQVYTLPPCREEMTKNQVSLSCAVKGFYPSDIAVEWESNGQPENNYKTTPPVLDSDGSFFLVSKLTVDKSRWQQGNVFSCSVMHEALHNHYTQKSLSLSPG
notes: also called GUCY2c CD3 bispecific
[1]
  DELFIA TRF: 161
[2]
  DELFIA TRF: 150
[3]
  DELFIA TRF: 98.2
[4]
  DELFIA TRF: 105
[5]
  DELFIA TRF: 96.8
[6]
  DELFIA TRF: 163
[7]
  DELFIA TRF: 119
[8]
  DELFIA TRF: 161
[9]
  DELFIA TRF: 104
[10]
  DELFIA TRF: 135
[11]
  DELFIA TRF: 85.8
[12]
  DELFIA TRF: 259
[13]
  DELFIA TRF: 100
[14]
  DELFIA TRF: 90.5
[15]
  DELFIA TRF: 110
[16]
  DELFIA TRF: 93.2
[17]
  DELFIA TRF: 116
[18]
  DELFIA TRF: 104
[19]
  DELFIA TRF: 90.2
[20]
  DELFIA TRF: 130
[21]
  DELFIA TRF: 97.8
[22]
  DELFIA TRF: 108
[23]
  DELFIA TRF: 105
[24]
  DELFIA TRF: 3210
[25]
  DELFIA TRF: 145
[26]
  DELFIA TRF: 105
[27]
  DELFIA TRF: 102
[28]
  DELFIA TRF: 96.2
[29]
  DELFIA TRF: 125
[30]
  DELFIA TRF: 98.5
[31]
  DELFIA TRF: 109
[32]
  DELFIA TRF: 99
[33]
  DELFIA TRF: 136
[34]
  DELFIA TRF: 102
[35]
  DELFIA TRF: 105
[36]
  DELFIA TRF: 116
